Molecular target: mouse CD40 on BALB/c thymocytes (mouse) (UniProt P27512)
Experiment: cell-based or functional assay

UniProt P27512, sequence (P27512 20-289): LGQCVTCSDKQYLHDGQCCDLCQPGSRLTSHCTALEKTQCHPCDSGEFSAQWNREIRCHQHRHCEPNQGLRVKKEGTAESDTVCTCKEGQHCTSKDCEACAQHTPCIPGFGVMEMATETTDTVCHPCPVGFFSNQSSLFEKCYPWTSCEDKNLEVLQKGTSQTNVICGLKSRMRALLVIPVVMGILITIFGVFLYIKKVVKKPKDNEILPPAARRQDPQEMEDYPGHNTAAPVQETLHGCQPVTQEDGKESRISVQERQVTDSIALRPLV

increase in Vα8 expression in gated DP thymocytes: 12%
percent Vα11+ thymocytes: 3.3%
Substance: rat IgG anti-mouse CD40, 1C10 (antibody)

From patent US20050048055A1
